Test results as given in article PMC3720892, “Functional Analysis of the Superfamily 1 DNA Helicases Encoded by Mycoplasma pneumoniae and Mycoplasma genitalium”.

How the values were obtained:
[1] = molecular target: T1, PcrAs M129 (Mycoplasma pneumoniae strain M129, UniProt P75438 1-529); test: EMSA; up to 200 nM protein; 20 mM Tris-HCl pH 7.5, 1 mM DTT, 50 ng/ul BSA, 8 nM DNA, 15 min at room temperature, no Mg2+ or ATP listed; 6% PAGE in 1x TBE; conditions: protein: recombinant, tags: N-terminal MBP
T1 sequence: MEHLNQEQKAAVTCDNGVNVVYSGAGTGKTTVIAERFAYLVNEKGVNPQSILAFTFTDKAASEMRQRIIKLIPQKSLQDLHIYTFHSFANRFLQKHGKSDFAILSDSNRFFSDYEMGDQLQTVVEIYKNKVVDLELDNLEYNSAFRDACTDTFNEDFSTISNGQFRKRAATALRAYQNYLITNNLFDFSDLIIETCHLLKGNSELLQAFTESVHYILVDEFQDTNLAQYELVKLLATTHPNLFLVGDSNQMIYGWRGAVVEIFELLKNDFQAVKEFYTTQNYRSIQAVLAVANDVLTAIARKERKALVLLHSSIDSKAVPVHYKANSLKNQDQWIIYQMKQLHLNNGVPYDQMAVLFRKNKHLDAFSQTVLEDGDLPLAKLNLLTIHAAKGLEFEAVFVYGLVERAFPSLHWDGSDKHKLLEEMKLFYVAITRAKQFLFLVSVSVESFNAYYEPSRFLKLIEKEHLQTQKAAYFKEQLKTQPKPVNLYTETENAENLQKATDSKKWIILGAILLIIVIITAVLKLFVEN

[2] = molecular target: T2, PcrA Mpn (Mycoplasma pneumoniae strain M129, UniProt P75437 1-715); test: EMSA; 22-200 nM protein; 20 mM Tris-HCl pH 7.5, 1 mM DTT, 50 ng/ul BSA, 8 nM DNA, 15 min at room temperature, no Mg2+ or ATP listed; 6% PAGE in 1x TBE; conditions: protein: recombinant; tags: N-terminal MBP; label: 5' 6-FAM
T2 sequence: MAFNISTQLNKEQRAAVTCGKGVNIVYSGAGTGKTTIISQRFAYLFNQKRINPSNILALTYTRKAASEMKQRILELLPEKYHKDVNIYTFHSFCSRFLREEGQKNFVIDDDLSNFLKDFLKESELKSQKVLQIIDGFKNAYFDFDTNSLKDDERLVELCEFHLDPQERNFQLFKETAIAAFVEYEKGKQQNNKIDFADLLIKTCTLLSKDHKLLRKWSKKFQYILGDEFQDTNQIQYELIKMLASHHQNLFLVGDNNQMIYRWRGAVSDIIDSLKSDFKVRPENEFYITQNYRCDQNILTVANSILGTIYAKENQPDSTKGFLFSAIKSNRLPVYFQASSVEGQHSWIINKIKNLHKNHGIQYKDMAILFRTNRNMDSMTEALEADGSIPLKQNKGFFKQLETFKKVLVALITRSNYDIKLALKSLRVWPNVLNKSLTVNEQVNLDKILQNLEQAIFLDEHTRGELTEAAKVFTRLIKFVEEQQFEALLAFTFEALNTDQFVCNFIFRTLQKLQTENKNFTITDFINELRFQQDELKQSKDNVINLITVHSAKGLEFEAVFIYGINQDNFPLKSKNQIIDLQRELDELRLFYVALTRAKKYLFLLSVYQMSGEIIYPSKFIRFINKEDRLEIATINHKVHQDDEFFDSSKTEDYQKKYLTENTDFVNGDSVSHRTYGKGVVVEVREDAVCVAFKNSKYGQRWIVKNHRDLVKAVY

[3] = molecular target: T3, PcrA Mge (Mycoplasma genitalium strain G37, UniProt P47486 1-703); test: as above; conditions: protein: recombinant; tags: N-terminal MBP; label: 5' 6-FAM
T3 sequence: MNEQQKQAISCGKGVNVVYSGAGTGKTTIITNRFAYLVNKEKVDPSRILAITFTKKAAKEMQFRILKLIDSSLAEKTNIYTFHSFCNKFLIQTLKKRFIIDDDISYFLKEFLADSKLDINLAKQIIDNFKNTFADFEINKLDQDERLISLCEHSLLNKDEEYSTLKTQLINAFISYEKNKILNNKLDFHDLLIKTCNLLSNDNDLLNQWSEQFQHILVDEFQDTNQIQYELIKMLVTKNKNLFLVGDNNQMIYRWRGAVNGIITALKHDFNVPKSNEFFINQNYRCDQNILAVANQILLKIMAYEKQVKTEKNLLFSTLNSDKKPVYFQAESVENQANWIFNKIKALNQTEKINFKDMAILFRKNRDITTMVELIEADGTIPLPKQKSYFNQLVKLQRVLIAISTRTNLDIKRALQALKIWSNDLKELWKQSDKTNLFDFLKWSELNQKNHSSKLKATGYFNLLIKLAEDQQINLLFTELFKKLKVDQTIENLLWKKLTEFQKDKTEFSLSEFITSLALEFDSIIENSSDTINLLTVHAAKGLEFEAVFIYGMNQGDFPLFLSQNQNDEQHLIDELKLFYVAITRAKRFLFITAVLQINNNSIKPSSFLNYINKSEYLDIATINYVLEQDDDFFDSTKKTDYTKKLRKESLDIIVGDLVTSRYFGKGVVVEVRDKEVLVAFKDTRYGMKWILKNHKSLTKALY

[4] = molecular target: T2, PcrA Mpn; test: EMSA; 22-200 nM protein; most complexes did not enter gel; 20 mM Tris-HCl pH 7.5, 1 mM DTT, 50 ng/ul BSA, 8 nM DNA, 15 min at room temperature, no Mg2+ or ATP listed; 6% PAGE in 1x TBE; conditions: protein: recombinant; tags: N-terminal MBP; label: 5' 6-FAM on one strand; 3' overhang 24 nt
[5] = molecular target: T3, PcrA Mge; test: as above; conditions: protein: recombinant; tags: N-terminal MBP; label: 5' 6-FAM on one strand; 3' overhang 24 nt
[6] = molecular target: T3, PcrA Mge; test: EMSA; 22-200 nM protein; discrete complex IV; 20 mM Tris-HCl pH 7.5, 1 mM DTT, 50 ng/ul BSA, 8 nM DNA, 15 min at room temperature, no Mg2+ or ATP listed; 6% PAGE in 1x TBE; conditions: protein: recombinant; tags: N-terminal MBP; label: 5' 6-FAM on one strand; 5' overhang 24 nt
[7] = molecular target: T2, PcrA Mpn; test: EMSA; 22-200 nM protein; discrete complex III; 20 mM Tris-HCl pH 7.5, 1 mM DTT, 50 ng/ul BSA, 8 nM DNA, 15 min at room temperature, no Mg2+ or ATP listed; 6% PAGE in 1x TBE; conditions: protein: recombinant; tags: N-terminal MBP; label: 5' 6-FAM on one strand; 5' overhang 24 nt

B1: oligonucleotide 1 (ssDNA)
DNA: CAAAGTAAGAGCTTCTCGAGCTGCGCAAGGATAGGTCGAATTTTCTCATTTT
- binding result ([1]; label: 5' 6-FAM): no binding
- binding result [2]: binds
- binding result [3]: binds

B2: substrate a (dsDNA)
DNA 1: B1 DNA
DNA 2: AAAATGAGAAAATTCGACCTATCCTTGCGCAGCTCGAGAAGCTCTTACTTTGATCGGATCCATGAATGAACAACAA
- binding result ([1]; label: 5' 6-FAM on one strand, 3' overhang 24 nt): no binding
- binding result [4]: binds
- binding result [5]: binds

B3: substrate b (dsDNA)
DNA 1: B1 DNA
DNA 2: ATCGGATCCATGAATGAACAACAAAAAATGAGAAAATTCGACCTATCCTTGCGCAGCTCGAGAAGCTCTTACTTTG
- binding result ([1]; label: 5' 6-FAM on one strand, 5' overhang 24 nt): no binding
- binding result [6]: binds
- binding result [7]: binds

B4: substrate c (dsDNA)
DNA 1: B1 DNA
DNA 2: AAAATGAGAAAATTCGACCTATCCTTGCGCAGCTCGAGAAGCTCTTACTTTG
- binding result ([1]; label: 5' 6-FAM on one strand, blunt): no binding
